{"source": "patent US6903183B1", "about": "“Compositions and methods for regulation of steroidogenesis” (Texas Tech University Health Services Center, priority 1996, dated 2005)", "key": {"StAR [1]": {"target": "T1, StAR (Mus musculus, UniProt P51557)", "T1 construct": "made in house; host or cells: three sources: dbcAMP-stimulated MA-10 cells (endogenous); COS 1 cells transfected with StAR cDNA; E. coli with pKK233-2/StAR", "T1 sequence (P51557 63-284)": "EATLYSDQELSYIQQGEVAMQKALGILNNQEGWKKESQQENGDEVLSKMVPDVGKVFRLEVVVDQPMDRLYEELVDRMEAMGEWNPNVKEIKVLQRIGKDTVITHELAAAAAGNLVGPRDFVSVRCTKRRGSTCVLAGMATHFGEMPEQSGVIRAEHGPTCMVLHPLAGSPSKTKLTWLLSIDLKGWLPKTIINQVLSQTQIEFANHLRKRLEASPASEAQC", "test": "Fluorescent sterol binding assay"}, "StAR [2]": {"target": "T1, StAR", "test": "Cholesterol binding to StAR (filtration radioassays, native PAGE)", "description": "For these studies StAR proteins were obtained from three sources; (1) MA-10 cells stimulated with dbAMP; (2) monkey kidney cells (COS 1) transfected with StAR cDNA; and (3) expression of a recombinant pKK233-2/StAR plasmid in E. coli. Filtration radioassays and Steady-State (native) polyacrylamide gel electrophoresis were used to detect cholesterol binding to StAR. […] Thus, this study has provided evidence that cholesterol can bind to the StAR protein with high affinity."}, "COS 1 cells [3]": {"system": "COS 1 cells", "details": "expressed in COS1 cells (Lin et al., 1995); cited from earlier work"}, "MA-10 cells": {"system": "MA-10 cells", "test": "Progesterone production in MA-10 cells transfected with the 30 kDa cDNA (radioimmunoassay)", "type": "cell-based, mouse", "description": "Expression of the 30-kD Protein in MA-10 Cells and COS I Cells. The full length SalI-NotI 1456 base pair 30-kDa cDNA was subcloned into the eukaryotic expression vector, pCMV (Anderson, et al., 1989). MA-10 cells were transfected with DNA by a lipsome-mediated uptake using the LipofectAMINE reagent (Life Technologies, Inc. Gathersburg, Md.) (Hawley-Nelson, et al., 1993). Plasmid DNA used in transfection experiments were purified by CsCl density gradient followed by polyethylene glycol precipitation. The DNA was mixed with {fraction (1/10 )} the final volume of Waymouth's media minus serum and minus antibiotics (WAY^−) and added to an equal volume of WAY^− media containing the LipofectAMINE reagent. The DNA/lipid solution was gently mixed and incubated for 30 min at room temperature, then WAY^− media was added to achieve the final concentration of the DNA and LipofectAMINE reagent of 5 μg/ml and 20 μg/ml respectively. The cells were washed once with WAY^− media, incubated with transfection mix for 6 h, washed once with PBS, then incubated with Waymouth's plus 15% horse serum. The same procedure was used for transfection of COS 1 cells except Dulbecco's modified Eagle's media minus serum and antibiotics was used for the transfection media. For isolation of mitochondria for immunoblot analysis, cells were grown on 100-mm dishes. For progesterone production assays, MA-10 cells were plated into 96 well plates at 75,000 cells/well the day before the experiment. Typically, 8 wells each were transfected with either pCMV or pCMV+30-kDa cDNA for one experiment set.\nRadioimmunoassay. 48 hours post-transfection, the growth medium was replaced with Waymouth's minus horse serum. After 6 h at 37° C. 5% CO2, progesterone was measured directly in the media by radioimmunoassay as previously described (Resko, et al., 1974). The progesterone antibody was obtained from Holly Hill Biologicals (Hillsboro, Oreg.).\nMA-10 cells were transfected with the 30 kDa cDNA and progesterone production was measured as follows. The full-length cDNA was subcloned into the pCMW eukaryotic expression vector and transfected into MA-10 cells using LipofectAMINE (Life Technologies, Inc.). Cells (75,000 per well) were plated in a 96 well plate the day before transfection. The cells were incubated with the DNA/lipid transfection mixture for 6 hours, washed one time with PBS, and the incubated in Waymouths+15% horse serum. […] After 6 h, the medium was removed and progesterone was measured by radioimmunoassay. The cells were lysed directly in the wells with 0.1% SDS and protein was determined by the method of Bradford (1976). […] The transfected cells were not treated with hormone and progesterone was measured directly in the media after a 6 h incubation."}, "[4]": {"system": "mitochondria isolated from MA-10 mouse Leydig tumor cells", "test": "In vitro reconstituted system: pregnenolone synthesis by isolated mitochondria", "type": "biochemical", "details": "protein added to isolated mitochondria", "description": "Rat heart mitochondria were used for the import assay with bovine StAR, indicating import of StAR is not dependent upon factors specific to mitochondria isolated from steroidogenic tissues. The ability of StAR to increase steroid production has also been confirmed in an in vitro reconstituted system."}, "COS 1 cells [5]": {"system": "COS 1 cells", "test": "Steroid production in COS 1 cells expressing StAR", "type": "cell-based, monkey", "details": "transient transfection of COS 1 cells, absence of hormone stimulation", "description": "Testicular tissue of two patients and genome DNA of a third patient with LCAH have mutations in the gene for StAR (Lin et al., Science, 267:1828-1831, 1995) (incorporated herein by reference). […] These truncations were confirmed by Western analysis following expression of the mutated cDNAs in COS cells. Virtually none of the precursor form of StAR expressed from the cDNA of these patients was converted to the mature mitochondrial form.\nAlso, increases in StAR mRNA and protein closely paralleled steroid production indicating a temporal relationship in these parameters."}}}
{"molecule": "C[C@H](CNc1ccc([N+](=O)[O-])c2nonc12)[C@H]1CC[C@H]2[C@@H]3CC=C4C[C@@H](O)CC[C@]4(C)[C@H]3CC[C@]12C", "note": "[NBD-cholesterol]", "values": [{"measurement": "affinity of binding to StAR", "setting": "StAR [1]", "result": "nanomolar range"}]}
{"molecule": "CC(C)CCC[C@@H](C)[C@H]1CC[C@H]2[C@@H]3CC=C4C[C@@H](O)CC[C@]4(C)[C@H]3CC[C@]12C", "note": "[cholesterol]", "values": [{"measurement": "specific binding to StAR", "setting": "StAR [2]", "result": "20-40 % of the total binding"}]}
{"molecule": "StAR: LH-inducible mitochondrial 37 kDa precursor / 30 kDa mature protein, SEQ ID NO:2 (mouse) or 18 (human) (protein) MGQVRRRSSLLGSQLEATLYSDQELSYIQQGEVAMQKALGILNNQEGWKKESQQENGDEVLSKMVPDVGKVFRLEVVVDQPMDRLYEELVDRMEAMGEWNPNVKEIKVLQRIGKDTVITHELAAAAAGNLVGPRDFVSVRCTKRRGSTCVLAGMATHFGEMPEQSGVIRAEHGPTCMVLHPLAGSPSKTKLTWLLSIDLKGWLPKTIINQVLSQTQIEFANHLRKRLEASPASEAQC", "values": [{"measurement": "increase in steroid production", "setting": "COS 1 cells [3]", "result": 8, "unit": "fold"}, {"measurement": "average rate of progesterone produced", "setting": "MA-10 cells; MA-10 cells expressing the 30 kDa protein", "result": "166 pg progesterone produced per mg protein per hour"}, {"measurement": "increase in progesterone production above cells transfected with vector alone", "setting": "MA-10 cells; MA-10 cells, absence of hormone stimulation", "result": "1.5-3.5"}, {"measurement": "increase in steroidogenesis", "setting": "MA-10 cells; expression of 30 kDa protein in MA-10 cells versus pCMV vector alone", "result": "1.5 to 3.7", "unit": "fold"}, {"measurement": "constitutive steroid production versus basal parental MA-10 cells", "setting": "MA-10 cells; stable transfected MA-10 cell lines constitutively synthesizing the 30 kDa protein", "result": "about 9 x"}, {"measurement": "pregnenolone synthesis", "setting": "[4]", "result": "time- and dose-dependent increase"}, {"measurement": "steroid production", "setting": "COS 1 cells [5]", "result": "several fold increase"}]}
